From article PMC7978432 come the findings set out here.

For this assay, the target named is SARS-CoV-2 S2GΔHR2-5GS-1TD0 (SARS-CoV-2 | not stated) (UniProt P0DTC2). The assay can be described thus: native gel or EMSA. A general note: Mobility shift assays separate free from complexed probe on a gel.

Usually stoichiometry N stands for the number of molecules, sites or subunits per partner or assembly.

For the substance “SARS-CoV-2 S2GΔHR2-5GS-1TD0 (from UniProt P0DTC2 14-1149)”, the stoichiometry N turned out to be 3.
